Patent publication US20080057055A1, “OLD-35 as an inflammatory agent” (priority 2004, published 2008)

Assays:
HeLa cells = experiment: Monitoring ROS production by flow cytometry (HE and DCFH-DA staining); type: cell-based, human; settings: Ad.hPNPase 50 pfu/cell, plus 20 mM NAC
Procedure: Cell Lines, Reagents and Virus Infection protocol. The human cervical carcinoma cell line HeLa was cultured in Dulbecco's Modified Eagle Medium (DMEM) supplemented with 10% fetal calf serum, penicillin (50 units/ml) and streptomycin (50 μg/ml) at 37° C. in 5% CO2 and 100% relative humidity. N-acetyl-L-cysteine and Tiron were obtained from Sigma (St. Louis, Mo.). The recombinant replication-incompetent adenovirus expressing old-35 (Ad.hPNPase) was created in two steps as described previously and plaque purified by standard procedures (1, 28). Cells were infected with a multiplicity of infection (m.o.i.) of 1 to 50 plaque forming units (pfu)/cell of Ad.vec (control replication-incompetent adenovirus) or Ad.hPNPase as described (29).
Monitoring ROS Production. Cells were stained with 2.5 μM hydroethidine (HE) and 5 μM 5,6-carboxy-2′,7′-dichlorofluorescein diacetate (DCFH-DA) in PBS for 30 min in the dark (32). Immediately after staining the cells were analyzed by flow cytometry (FACScan; Becton Dickinson, Mountain View, Calif.) and data were analyzed using CellQuest software, version 3.1 (Becton Dickinson). The cells were gated to exclude cell debris.

IκBα, p65 = experiment: Western blot of cytoplasmic and nuclear extracts; type: cell-based, human; settings: 20 mM NAC, 2 days post-infection
Procedure: Cell Fractionation. Cells were harvested and the cytoplasm and nucleus were fractionated by the modified Schreiber's method as described (31). Briefly, the cells were washed with PBS and lysed for 10 min in Buffer A (10 mM HEPES pH 7.9, 10 mM KCl, 1.5 mM MgCl2, 1 mM EDTA, 1 mM dithiothreitol, 0.1% Nonidet P-40) containing protease inhibitor cocktail (Roche, Mannheim, Germany). After centrifugation, the supernatant was saved as the cytoplasmic fraction and the pellet containing nuclei was lysed in Buffer B (20 mM HEPES pH 7.9, 400 mM KCl, 20% glycerol, 1 mM EDTA, 1 mM DTT) containing protease inhibitor cocktail (Roche) with one freeze-thaw cycle. After centrifugation the supernatant was collected as the nuclear fraction. Protein concentration was determined by Bio-Rad protein assay kit (Bio-Rad laboratories, Hercules, Calif.).
Preparation of Whole Cell Lysates and Western Blot Analysis. Whole cell lysates were prepared and Western blotting was performed as described (4). Briefly, cells were harvested in RIPA buffer containing protease inhibitor cocktail (Roche, Mannheim, Germany), 1 mM Na3VO4 and 50 mM NaF and centrifuged at 12,000 rpm for 10 min at 4° C. The supernatant was used as total cell lysate. Thirty μg of total cell lysate were used for SDS-PAGE and transferred to a nitrocellulose membrane. […]

IL-6 = experiment: Human IL-6 ELISA in culture supernatants; type: cell-based; settings: HeLa, Ad.hPNPase 50 pfu/cell; plus 20 mM NAC
Source text: (§1) Human IL-6 and IL-8 ELISA. The levels of IL-6 and IL-8 were quantified by ELISA in culture supernatants using human IL-6 ELISA kit (Pierce Biotechnology, Rockford, Ill.) and human IL-8 ELISA kit (Pierce), respectively, according to the manufacturer's protocol.

IL-8 = experiment: Human IL-8 ELISA in culture supernatants; type: cell-based; settings: HeLa, Ad.hPNPase 50 pfu/cell; plus 20 mM NAC
Source text: as §1

c-myc mRNA = experiment: In vitro mRNA degradation assay with in vitro translated proteins; type: biochemical, human; settings: in vitro translated protein incubated with HO-1 total RNA for 0.5 and 2 h
Procedure: In vitro Translation and in vitro mRNA Degradation Assays: In vitro translation was performed using the TNT coupled Reticulocyte Lysate Systems (Promega) using the plasmids pcDNA3.1+(Hygro) as a control, GADD153 expression plasmid, phPNPase^old-35, pΔRPH1, pΔRPH2, pΔRPH1+2 and pΔC-term according to the manufacturer's protocol. Five […] of total RNA from HO-1 cells were incubated with 5 μl of each in vitro translated protein at 37° C. from 0.5 to 2 h. The RNA was repurified using the Qiagen RNeasy mini kit (Qiagen) and Northern blotting was performed.

[1] = biological target: the molecule itself; experiment: self-association inferred from anti-HA Western blot of fractionated HO-1 cells
NF-κB p65 subunit (RelA) = NF-κB p65 subunit (RelA) (human, UniProt Q04206 1-551); experiment: complex composition inferred from EMSA supershift
NF-κB p65 subunit (RelA), sequence (Q04206 whole entry): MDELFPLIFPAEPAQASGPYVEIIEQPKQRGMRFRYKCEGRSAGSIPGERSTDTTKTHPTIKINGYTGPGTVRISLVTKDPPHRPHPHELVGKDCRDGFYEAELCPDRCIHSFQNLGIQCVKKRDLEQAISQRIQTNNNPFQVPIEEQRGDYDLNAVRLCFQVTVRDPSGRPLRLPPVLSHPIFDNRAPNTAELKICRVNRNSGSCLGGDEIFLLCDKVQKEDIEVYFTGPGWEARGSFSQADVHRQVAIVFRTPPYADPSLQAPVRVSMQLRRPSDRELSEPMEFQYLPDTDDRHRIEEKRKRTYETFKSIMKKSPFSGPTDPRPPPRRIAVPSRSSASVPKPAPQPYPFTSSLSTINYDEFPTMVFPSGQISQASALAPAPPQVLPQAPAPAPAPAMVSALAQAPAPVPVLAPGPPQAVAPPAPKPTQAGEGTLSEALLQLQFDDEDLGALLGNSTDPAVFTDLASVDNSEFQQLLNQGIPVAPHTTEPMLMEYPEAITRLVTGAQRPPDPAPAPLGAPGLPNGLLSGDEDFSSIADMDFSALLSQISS

Q: What does the source list for `CC(=O)N[C@@H](CS)C(=O)O` [NAC, N-acetyl-L-cysteine]?
A: percentage of high ROS containing cells (HeLa cells; 24 hr): ~2%; percentage of high ROS containing cells (HeLa cells; 36 hr): ~3%; degradation of IκBα and nuclear translocation of p65 by Ad.hPNPase^old-35 infection (IκBα, p65): inhibited; secreted IL-6 in culture supernatant (IL-6): markedly inhibited; secreted IL-8 in culture supernatant (IL-8): markedly inhibited

B1: pΔRPH1+2: plasmid for ΔRPH1+2 deletion mutant, in vitro translated protein of 31 kDa (protein)
chain: MDSGVPISSAVAGVAIGLVTKTDPEKGEIEDYRLLTDILGIEDYNGDMDFKIAGTNKGITALQADIKLPGIPIKIVMEAIQQASVAKKEILQIMNKTISKPRASRKENGPVVETVQVPLSKRAKFVGPGGYNLKKLQAETGVTISQVDEETFSVFAPTPSVMHEARDFITEICKDDQEQQLEFGAVYTATITEIRDTGVMVKLYPNMTAVLLHNTQLDQRKIKHPTALGLEVGQEIQVKYFGRDPADGRMRLSRKVLQSPATTVVRTLNDRSSIVMGEPISQSSSNSQYPYDVPDYA
Q: B1 was tested. Which “degradation of c-myc mRNA” value (c-myc mRNA) did it give?
A: No degradation

B2: pGADD153: unrelated plasmid that expresses a transcription factor (protein, UniProt P35638 1-169, looked up)
DNA damage-inducible …: MAAESLPFSFGTLSSWELEAWYEDLQEVLSSDENGGTYVSPPGNEEEESKIFTTLDPASLAWLTEEEPEPAEVTSTSQSPHSPDSSQSSLAQEEEEEDQGRTRKRKQSGHSPARAGKQRMKEKEQENERKVAQLAEENERLKQEIERLTREVEATRRALIDRMVNLHQA
modifications: expressed from plasmid
notes: unrelated plasmid that expresses a transcription factor
Q: For B2, which “degradation of c-myc mRNA” value (c-myc mRNA) is on record?
A: No degradation

B3: phPNPase^old-35: plasmid expressing full-length HA-tagged hPNPase^OLD-35 protein, in vitro translated for RNA degradation assays (protein, UniProt Q8TCS8 1-783, looked up)
chain: MAACRYCCSCLRLRPLSDGPFLLPRRDRALTQLQVRALWSSAGSRAVAVDLGNRKLEISSGKLARFADGSAVVQSGDTAVMVTAVSKTKPSPSQFMPLVVDYRQKAAAAGRIPTNYLRREIGTSDKEILTSRIIDRSIRPLFPAGYFYDTQVLCNLLAVDGVNEPDVLAINGASVALSLSDIPWNGPVGAVRIGIIDGEYVVNPTRKEMSSSTLNLVVAGAPKSQIVMLEASAENILQQDFCHAIKVGVKYTQQIIQGIQQLVKETGVTKRTPQKLFTPSPEIVKYTHKLAMERLYAVFTDYEHDKVSRDEAVNKIRLDTEEQLKEKFPEADPYEIIESFNVVAKEVFRSIVLNEYKRCDGRDLTSLRNVSCEVDMFKTLHGSALFQRGQTQVLCTVTFDSLESGIKSDQVITAINGIKDKNFMLHYEFPPYATNEIGKVTGLNRRELGHGALAEKALYPVIPRDFPFTIRVTSEVLESNGSSSMASACGGSLALMDSGVPISSAVAGVAIGLVTKTDPEKGEIEDYRLLTDILGIEDYNGDMDFKIAGTNKGITALQADIKLPGIPIKIVMEAIQQASVAKKEILQIMNKTISKPRASRKENGPVVETVQVPLSKRAKFVGPGGYNLKKLQAETGVTISQVDEETFSVFAPTPSAMHEARDFITEICKDDQEQQLEFGAVYTATITEIRDTGVMVKLYPNMTAVLLHNTQLDQRKIKHPTALGLEVGQEIQVKYFGRDPADGRMRLSRKVLQSPATTVVRTLNDRSSIVMGEPISQSSSNSQ
modifications: full-length HA tag
notes: plasmid expressing full-length HA-tagged hPNPase^OLD-35 protein, in vitro translated for RNA degradation assays
Q: B3 was tested. Which “degradation of c-myc mRNA” value (c-myc mRNA) did it give?
A: significant degradation

B4: ΔRPH1 deletion mutant of hPNPase^OLD-35 (a.a. 183-783) with C-terminal HA tag (enzyme)
chain: PWNGPVGAVRIGIIDGEYVVNPTRKEMSSSTLNLVVAGAPKSQIVMLEASAENILQQDFCHAIKVGVKYTQQIIQGIQQLVKETGVTKRTPQKLFTPSPEIVKYTHKLAMERLYAVFTDYEHDKVSRDEAVNKIRLDTEEQLKEKFPEADPYEIIESFNVVAKEVFRSIVLNEYKRCDGRDLTSLRNVSCEVDMFKTLHGSALFQRGQTQVLCTVTFDSLESGIKSDQVITAINGIKDKNFMLHYEFPPYATNEIGKVTGLNRRELGHGALAEKALYPVIPRDFPFTIRVTSEVLESNGSSSMASACGGSLALMDSGVPISSAVAGVAIGLVTKTDPEKGEIEDYRLLTDILGIEDYNGDMDFKIAGTNKGITALQADIKLPGIPIKIVMEAIQQASVAKKEILQIMNKTISKPRASRKENGPVVETVQVPLSKRAKFVGPGGYNLKKLQAETGVTISQVDEETFSVFAPTPSVMHEARDFITEICKDDQEQQLEFGAVYTATITEIRDTGVMVKLYPNMTAVLLHNTQLDQRKIKHPTALGLEVGQEIQVKYFGRDPADGRMRLSRKVLQSPATTVVRTLNDRSSIVMGEPISQSSSNSQYPYDVPDYA
notes: also called Ad.ΔRPH1; pΔRPH1
Q: With B4 as the molecule, how does the “degradation of c-myc mRNA” value (c-myc mRNA) read?
A: significant degradation

Q: Does B4 bind [1]?
A: no binding

B5: ΔRPH2 deletion mutant of hPNPase^OLD-35 (a.a. 1-202 and 496-783) with C-terminal HA tag (enzyme)
chain: MAACRYCCSCLRLRPLSDGPFLLPRRDRALTQLQVRALWSSAGSRAVAVDLGNRKLEISSGKLARFADGSAVVQSGDTAVMVTAVSKTKPSPSQFMPLVVDYRQKAAAAGRIPTNYLRREVGTSDKEILTSRIIDRSIRPLFPAGYFYDTQVLCNLLAVDGVNEPDVLAINGASVALSLSDIPWNGPVGAVRIGIIDGEYVVMDSGVPISSAVAGVAIGLVTKTDPEKGEIEDYRLLTDILGIEDYNGDMDFKIAGTNKGITALQADIKLPGIPIKIVMEAIQQASVAKKEILQIMNKTISKPRASRKENGPVVETVQVPLSKRAKFVGPGGYNLKKLQAETGVTISQVDEETFSVFAPTPSVMHEARDFITEICKDDQEQQLEFGAVYTATITEIRDTGVMVKLYPNMTAVLLHNTQLDQRKIKHPTALGLEVGQEIQVKYFGRDPADGRMRLSRKVLQSPATTVVRTLNDRSSIVMGEPISQSSSNSQYPYDVPDYA
notes: The two fragments were joined at an HpaI site; also called Ad.ΔRPH2; pΔRPH2
Q: B5 was tested. Which “degradation of c-myc mRNA” value (c-myc mRNA) did it give?
A: significant degradation

Q: Does B5 bind [1]?
A: no binding

B6: ΔC-term deletion mutant of hPNPase^OLD-35 (a.a. 1-507) with C-terminal HA tag (enzyme)
chain: MAACRYCCSCLRLRPLSDGPFLLPRRDRALTQLQVRALWSSAGSRAVAVDLGNRKLEISSGKLARFADGSAVVQSGDTAVMVTAVSKTKPSPSQFMPLVVDYRQKAAAAGRIPTNYLRREVGTSDKEILTSRIIDRSIRPLFPAGYFYDTQVLCNLLAVDGVNEPDVLAINGASVALSLSDIPWNGPVGAVRIGIIDGEYVVNPTRKEMSSSTLNLVVAGAPKSQIVMLEASAENILQQDFCHAIKVGVKYTQQIIQGIQQLVKETGVTKRTPQKLFTPSPEIVKYTHKLAMERLYAVFTDYEHDKVSRDEAVNKIRLDTEEQLKEKFPEADPYEIIESFNVVAKEVFRSIVLNEYKRCDGRDLTSLRNVSCEVDMFKTLHGSALFQRGQTQVLCTVTFDSLESGIKSDQVITAINGIKDKNFMLHYEFPPYATNEIGKVTGLNRRELGHGALAEKALYPVIPRDFPFTIRVTSEVLESNGSSSMASACGGSLALMDSGVPISSAVAYPYDVPDYA
notes: also called Ad.ΔC-term; pΔC-term
Q: Which “degradation of c-myc mRNA” value (c-myc mRNA) does the source give for B6 here?
A: significant degradation

Q: Does B6 bind [1]?
A: no binding

B7: NF-κB p50 subunit (other, human, UniProt P19838 1-433, looked up)
chain: MAEDDPYLGRPEQMFHLDPSLTHTIFNPEVFQPQMALPTDGPYLQILEQPKQRGFRFRYVCEGPSHGGLPGASSEKNKKSYPQVKICNYVGPAKVIVQLVTNGKNIHLHAHSLVGKHCEDGICTVTAGPKDMVVGFANLGILHVTKKKVFETLEARMTEACIRGYNPGLLVHPDLAYLQAEGGGDRQLGDREKELIRQAALQQTKEMDLSVVRLMFTAFLPDSTGSFTRRLEPVVSDAIYDSKAPNASNLKIVRMDRTAGCVTGGEEIYLLCDKVQKDDIQIRFYEEEENGGVWEGFGDFSPTDVHRQFAIVFKTPKYKDINITKPASVFVQLRRKSDLETSEPKPFLYYPEIKDKEEVQRKRQKLMPNFSDSFGGGSGAGAGGGGMFGSGGGGGGTGSTGPGYSFPHYGFPTYGGITFHPGTTKSNAGMKHG
notes: also called NF-κB1 (p50/p105)
Q: Does B7 bind (NF-κB p65 subunit (RelA))?
A: binds
